Experimental data reported in patent US20070134249A1 (GENITOPE, published 2007).

Assays:
Assay in all cases: ELISA
Set-up in all cases: key: 0 = <0.5 OD, 1 = 0.5-1.0 OD, 4 = 1-4 OD
112 = target: T1, 112
T1 construct: H4-39 K4-1; also called PIN112
Text: (§1) Before specificity screening, all of the clonal immunogen-positive hybridoma supernatants were re-screened on the immunogen, a non-family member Id protein, and KLH, if animals were immunized with Id protein that has been conjugated KLH. As described above, this screen identifies HC-specific clones but not mAbs against the light chain constant region. Clones identified positive to the immunogen and KLH were […]. Those found positive to the immunogen but not to the non-family member Id protein or KLH were tittered on the immunogen. In addition to normalizing for different binding affinities and concentrations, each hybridoma supernatant was titered on the fully human form of the Id protein used as the immunogen(s) for the V regions. The titer or dilution resulting in an ELISA absorbance of 2.5 to 3 OD after 30 min. incubation time was then used. Hybridoma specificity was determined by screening against available Id proteins expressing the same HV and KV or LV as well as different HV, KV and LV. The final ELISA results are expressed as follows: 0 (<0.5 OD), 1 (0.5-1.0 OD), or 4 (1-4 OD). Positive hybridoma supernatants are categorized according to specificity: anti-Id, anti-constant region (HC, KC or LC), or V region (HV, KV, LV family or family member).
(§2) In general, the fully human Id protein or proteins containing the immunogen V regions were coated onto 96-well ELISA plates at 2.5-5 ug/mL in carbonate buffer pH 9.6 and incubated at 4° C. for up to 14 days. On the day of the ELISA, plates were brought to RT and blocked with Tris-Tween-20, pH 7.6 for 15-60 min. at RT. Following a NaCl and Triton X-100 wash, diluted hybridoma cell culture supernatants were incubated overnight at 4° C. Hybridoma supernatant dilutions ranged from 1:2 to 1:25 and were prepared in PBS with 5% BSA. Plates were washed and incubated with HRP-conjugated goat anti-mouse IgG-specific detecting antibody. A chromogenic substrate (TMB) was used to measure the amount of mouse antibody bound to each well. The reaction was stopped at or before 30 minutes with IN H2SO4 and plates were read immediately. Absorbency readings at 450 nm ranging between 0-4 OD and using Molecular Devices plate reader and SOFTMAX PRO software.

591 = target: T2, 591
T2 construct: H3-23 K4-1; also called PIN591
Text: as §1, §2

610 = target: T3, 610
T3 construct: H3-23 K4-1; also called PIN610
Text: as §1, §2

1145 = target: T4, 1145
T4 construct: H3-11 K4-1; also called PIN1145
Text: as §1, §2

912 = target: T5, 912
T5 construct: H3-23 K4-1; also called PIN912
Text: as §1, §2

1088 = target: T6, 1088
T6 construct: H2-5 K4-1; also called PIN1088
Text: as §1, §2

791 = target: T7, 791
T7 construct: H3-30 K4-1; also called PIN791
Text: as §1, §2

628 = target: T8, 628
T8 construct: fully human Id protein; also called PIN628
Text: as §1, §2

204 = target: T9, 204
T9 construct: H3-15 K4-1; also called PIN204
Text: as §1, §2

952 = target: T10, 952
T10 construct: H3-66 K4-1; also called PIN952
Text: as §1, §2

566 = target: T11, 566
T11 construct: H3-73 K4-1; also called PIN566
Text: as §1, §2

1014 = target: T12, 1014
T12 construct: H3-53 K4-1; also called PIN1014
Text: as §1, §2

953 = target: T13, 953
T13 construct: H5-51 K4-1; also called PIN953
Text: as §1, §2

170 = target: T14, 170
T14 construct: H4-34 K4-1; also called PIN170
Text: as §1, §2

899 = target: T15, 899
T15 construct: H4-34 K4-1; also called PIN899
Text: as §1, §2

626 = target: T16, 626
T16 construct: H5-51 K4-1; also called PIN626
Text: as §1, §2

518 = target: T17, 518
T17 construct: H4-59 K4-1; also called PIN518
Text: as §1, §2

805 = target: T18, 805
T18 construct: H3-7 K3-11; also called PIN805
Text: as §1, §2

987 = target: T19, 987
T19 construct: H3-23 K4-1; also called PIN987
Text: as §1, §2

792 = target: T20, 792
T20 construct: H1-3 K4-1; also called PIN792
Text: as §1, §2

Measured: grade

T8 sequence (VH, as listed by the source, chain 1 of 2): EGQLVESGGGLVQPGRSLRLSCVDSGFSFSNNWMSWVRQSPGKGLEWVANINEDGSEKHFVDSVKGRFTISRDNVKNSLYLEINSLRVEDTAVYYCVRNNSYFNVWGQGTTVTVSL
T8 sequence (VL, as listed by the source, chain 2 of 2): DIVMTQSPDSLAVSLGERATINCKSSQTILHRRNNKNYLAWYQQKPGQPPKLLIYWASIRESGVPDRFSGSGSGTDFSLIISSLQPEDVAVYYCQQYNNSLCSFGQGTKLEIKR

B1: mAb clone 12C3 (antibody, V domains shown)
VH: EVKLVESGGGLVQPGGSLSLSCAASGFTYTDYYMNWVRQPPGKALEWLALIRNKANGYTTEYSASLKGRFTISRDNSQSILYLQMNALRAEDSATYYCVRENINYYFDYWGQGTTLTVSS
VL: DIVLTQSPASLAVSLGQRATISCRASESVEYFGASLMQWYQQKSGQPPKLLIRAATNVESGVPARFSGSGSGTDFSLNIHPVEEDDIAMYFCQQSRKVPWTFGGGTKLEIKR
notes: Mouse hybridoma mAb, fusions 20/21 (PIN628 V regions)
4: 112 | 591 | 610 | 1145 | 912 | 1088 | 791 | 628 | 204 | 952 | 566 | 1014 | 953 | 170 | 899 | 626 | 518 | 805 | 987 | 792
